Experimental data from patent US8980614B2, “Staphylococcus haemolyticus prophage φSH2 endolysin is lytic for Staphylococcus aureus” (The United States of America, as represented by The …, priority 2012, dated 2015).

Legend:
[1] = tested on: S. aureus Newman cells; test: Turbidity reduction assay; type: cell-based, Staphylococcus aureus
Experimental: The turbidity reduction assay measures a decrease in optical density of a bacterial suspension due to lysis of the target bacteria by a lytic protein. The assays were performed in a 96-well dish format essentially as described previously (Donovan et al. 2006, supra). In order to reduce the variability of the assay, frozen stocks of S. aureus Newman substrate cells were prepared in a large batch as described by Becker et al. (2009b, supra). Immediately prior to the assay, the frozen cells were thawed, washed, and resuspended in the desired assay buffer such that when 100 μl of cell suspension were added to 100 μl of lysis buffer+/−protein, the final suspension has an OD600nm of ˜1.0.
Protein constructs were assayed at a concentration of 1 μM, and the assay was performed at room temperature, measuring the OD600nm at 1 min intervals for 45 min. Buffer without enzyme served as the control. The steepest slopes of the resulting lysis curves, which correspond to the lytic activities of the proteins, were determined by a sliding window over each group of three consecutive time points for the entire 45 min period. Specific activities were expressed as ΔOD600nm/min/μM, and the “no enzyme” control value was subtracted from each experimental value.
In order to determine the effect of salt concentration on lytic activity, turbidity reduction assays were performed in 10 mM Tris buffers at pH 7.5 with varying NaCl concentrations between 0 mM and 600 mM. Accordingly, the influence of pH was determined by using a series of different buffers with pH values ranging from 3.5 to 10.0. Citrate buffers were used for pH 3.5, 4.5, 5.5, and 6.0, MOPS buffers for pH 6.5, 7.0, and 7.5, Tris buffers for pH 8.0 and 9.0, and Carbonate/bicarbonate buffer for pH 10.0. The concentration of the buffer substance in all buffers used was 20 mM, and the NaCl concentration was 200 mM. To test the effect of bivalent metal ions, assays were performed in 10 mM Tris, 200 mM NaCl, pH 7.5 supplemented with MgCl2, MnCl2, or CaCl2 at different concentrations (0.1 mM, 1 mM, 10 mM), buffer without metal ions serving as control.

[2] = tested on: S. aureus Newman cells; test: Zymogram with S. aureus Newman cells embedded in the gel; type: cell-based; settings: 5 μg protein
Experimental: All purified proteins were analyzed with 15% SDS-PAGE, using a Kaleidoscope Precision Plus Protein Standard (BioRad, Hercules, Calif.). For zymograms, a 300 mL culture volume equivalent of live mid-log phase (OD600nm=0.4-0.6) cells of S. aureus strain Newman was embedded in the gel during polymerization. The protein samples were boiled in Laemmli sample buffer (BioRad) with β-mercaptoethanol, and electrophoresed with identical buffers and voltage for one hour in both the SDS-PAGE and the zymogram using a Mini-Protean TETRA gel system (BioRad). SDS gels were Coomassie stained and zymograms were washed in excess water and further incubated in deionized water for 60 min, followed by incubation in 10 mM Tris, pH 8.0 with 150 mM or 300 mM NaCl for 80 min. Areas of clearing in the turbid zymogram gel indicate a lytic protein in the gel.

[3] = tested on: staphylococcal strains (MRSA strains, mastitis isolates, coagulase negative staphylococci); test: Plate lysis assay, whole set of strains; type: cell-based, Staphylococcus; settings: 100 to 3.125 pmoles spotted
Experimental: (§1) Purified proteins (100 pmoles in a 10 μl volume and five two-fold serial dilutions thereof) were spotted onto a freshly spread lawn of log phase staphylococcal cells (OD600 nm of 0.4-0.6, diluted ¼ before plating) that had air dried for 15 min on gridded TSA (tryptic soy agar) plates. The spotted plates were air dried for 10 min in a laminar flow hood and incubated overnight at 37° C. Cleared spots indicating cell lysis were scored within 24 hours of plating the cells.
(§2) The φSH2 full length enzyme and the A1 construct were further tested in plate lysis assays against a set of different staphylococcal strains, including MRSA strains (NRS 382-385), mastitis isolates (305, Tanji 1-26), and coagulase negative staphylococci (non S. aureus) (Table 2). The same molar amounts of both proteins (ranging from 100 pmoles to 3.125 pmoles, in a volume of 10 ul) were spotted onto lawns of mid log phase cells of the respective strains, and the plates were analyzed for lysis zones the next day.

[4] = tested on: S. aureus Newman; test: Plate lysis assay; type: cell-based
Experimental: as §1, §2

[5] = tested on: S. xylocus; test: Plate lysis assay; type: cell-based; settings: 100 pmoles and 2-fold serial dilutions spotted on bacterial lawns
Experimental: as §1, §2

[6] = tested on: S. aureus Tanji 26; test: Plate lysis assay; type: cell-based; settings: 100 pmoles and 2-fold serial dilutions spotted on bacterial lawns
Experimental: as §1, §2

[7] = tested on: S. aureus NRS 385; test: Plate lysis assay; type: cell-based; settings: S. aureus NRS 385 (MRSA); 100 pmoles and 2-fold serial dilutions spotted on bacterial lawns
Experimental: as §1, §2

[8] = tested on: S. hyicus; test: Plate lysis assay; type: cell-based
Experimental: as §1, §2

[9] = tested on: S. simulans; test: Plate lysis assay; type: cell-based
Experimental: as §1, §2

[10] = tested on: S. aureus NRS 382; test: Plate lysis assay; type: cell-based; settings: S. aureus NRS 382 (MRSA); 100 pmoles and 2-fold serial dilutions spotted on bacterial lawns
Experimental: as §1, §2

[11] = tested on: S. chromogenes; test: Plate lysis assay; type: cell-based; settings: 100 pmoles and 2-fold serial dilutions spotted on bacterial lawns
Experimental: as §1, §2

[12] = tested on: S. aureus Tanji 19; test: Plate lysis assay; type: cell-based; settings: 100 pmoles and 2-fold serial dilutions spotted on bacterial lawns
Experimental: as §1, §2

[13] = tested on: S. aureus NRS 384; test: Plate lysis assay; type: cell-based; settings: S. aureus NRS 384 (MRSA); 100 pmoles and 2-fold serial dilutions spotted on bacterial lawns
Experimental: as §1, §2

[14] = tested on: S. epidermidis; test: Plate lysis assay; type: cell-based; settings: 100 pmoles and 2-fold serial dilutions spotted on bacterial lawns
Experimental: as §1, §2

[15] = tested on: S. aureus NRS 383; test: Plate lysis assay; type: cell-based; settings: S. aureus NRS 383 (MRSA); 100 pmoles and 2-fold serial dilutions spotted on bacterial lawns
Experimental: as §1, §2

[16] = tested on: S. aureus Tanji 20; test: Plate lysis assay; type: cell-based; settings: 100 pmoles and 2-fold serial dilutions spotted on bacterial lawns
Experimental: as §1, §2

[17] = tested on: S. aureus Tanji 1; test: Plate lysis assay; type: cell-based; settings: 100 pmoles and 2-fold serial dilutions spotted on bacterial lawns
Experimental: as §1, §2

[18] = tested on: S. aureus 305; test: Plate lysis assay; type: cell-based; settings: 100 pmoles and 2-fold serial dilutions spotted on bacterial lawns
Experimental: as §1, §2

[19] = tested on: S. warneri; test: Plate lysis assay; type: cell-based; settings: 100 pmoles and 2-fold serial dilutions spotted on bacterial lawns
Experimental: as §1, §2

[20] = 100 pmoles and 2-fold serial dilutions spotted on bacterial lawns

B1: ΦSH2 A1: Truncation of φSH2 lysin (1-166), isolated CHAP domain, 6×His-tagged, from pφSH2_A1, SEQ ID NO:4 (protein)
chain: MKTQAEINKRLDAYRKGTVDSPYRVKVWTSYDNRFYPMEPGCIDVDKSFHAQCADLTIDYILWLTDNEFRIRGNAKDAINPKKNKLPEGWKIVLNRPSTVPRKGWIAVFTDGTYWEYGHIGMVYDGGNTSRFQILEQNWNGWANKKPSLRWDNYYGLTHFIVPPVALEHHHHHH
modifications: 6xHis tag; Bacteriophage Phi SH2
lytic (specific) activity compared with the full length φSH2 lysin ([1]; 1 μM protein, at optimum salt concentration): approximately three-fold higher
increase of lytic activity by Ca2+ ([1]; 1 mM CaCl2, relative to 0 mM, 10 mM Tris, 200 mM NaCl, pH 7.5): more than 6 fold
effect of Mg2+ on lytic activity ([1]; 0.1-10 mM MgCl2, 10 mM Tris, 200 mM NaCl, pH 7.5): not significantly alter
effect of Mn2+ on lytic activity ([1]; 0.1-10 mM MnCl2, 10 mM Tris, 200 mM NaCl, pH 7.5): slightly inhibitory effect
lysis in zymogram ([2]; after incubation in deionized water for 60 min): did not cause a lytic band
lysis in zymogram ([2]; water 60 min, then 10 mM Tris, 150 mM NaCl, pH 8.0 up to 80 min): intense lytic band
strains against which lytic activity was displayed ([3]; 16 strains tested): 13 out of 16
MRSA strains lysed ([3]; four MRSA strains (NRS 382-385)): two MRSA strains
Lytic activity (lowest amount of protein producing a lysis zone) [4, 20]: + (+: 100 pmoles)
amount of protein causing a lysis zone ([4]; 100 to 3.125 pmoles spotted): 100 pmol
Lytic activity (lowest amount of protein producing a lysis zone) [5]: ++ (++: 50 pmoles)
Lytic activity (lowest amount of protein producing a lysis zone) [6]: + (+: 100 pmoles)
Lytic activity (lowest amount of protein producing a lysis zone) [7]: − (‘−’ means that no lysis was observed at the highest amount tested (100 pmoles))
Lytic activity (lowest amount of protein producing a lysis zone) [8, 20]: ++++ (++++: 12.5 pmoles)
amount of protein causing a lysis zone ([8]; 100 to 3.125 pmoles spotted): 12.5 pmol
Lytic activity (lowest amount of protein producing a lysis zone) [9, 20]: +++ (+++: 25 pmoles)
amount of protein causing a lysis zone ([9]; 100 to 3.125 pmoles spotted): 25 pmol
Lytic activity (lowest amount of protein producing a lysis zone) [10]: ++ (++: 50 pmoles)
Lytic activity (lowest amount of protein producing a lysis zone) [11]: ++ (++: 50 pmoles)
Lytic activity (lowest amount of protein producing a lysis zone) [12]: +++ (+++: 25 pmoles)
Lytic activity (lowest amount of protein producing a lysis zone) [13]: ++ (++: 50 pmoles)
Lytic activity (lowest amount of protein producing a lysis zone) [14]: − (‘−’ means that no lysis was observed at the highest amount tested (100 pmoles))
Lytic activity (lowest amount of protein producing a lysis zone) [15]: − (‘−’ means that no lysis was observed at the highest amount tested (100 pmoles))
Lytic activity (lowest amount of protein producing a lysis zone) [16]: +++ (+++: 25 pmoles)
Lytic activity (lowest amount of protein producing a lysis zone) [17]: +++ (+++: 25 pmoles)
Lytic activity (lowest amount of protein producing a lysis zone) [18]: ++++ (++++: 12.5 pmoles)
Lytic activity (lowest amount of protein producing a lysis zone) [19]: ++ (++: 50 pmoles)
